The results in this text go back to the Immune Epitope Database (IEDB).

Among the targets are HLA-A*02:03; HLA-A*02:06; HLA-A*68:02; HLA-B*08:01; HLA-A*01:01; HLA-A*23:01; HLA-A*24:02; HLA-A*26:01; HLA-A*29:02; HLA-A*30:02; HLA-A*02:02.
Common to all, as to assay: IEDB peptide-MHC binding, purified MHC/competitive/radioactivity; filed as Kd, often an IC50 or EC50 that approximates it; ≥ and ≤ were set here for values at or beyond the usual limits of such assays
The mark [1] stands for this setting: source organism: Dengue virus 3 Martinique/1243/1999.
Where [2] appears, read: source organism: Vaccinia virus WR.
Setting [3] is: source organism: SARS coronavirus Tor2.
The mark [4] stands for this setting: source organism: Mammarenavirus juninense.
[5] abbreviates: source organism: Mammarenavirus whitewaterense.
Where [6] appears, read: source organism: Dengue virus 2 Jamaica/1409/1983.
Setting [7] is: source organism: Lymphocytic choriomeningitis virus (strain Armstrong).

Bounds are passed on as bounds.

Take RTATLILAGV: the Kd (commonly the constant that tells how readily two partners part at equilibrium) in the assay with HLA-A*02:03 (setting [1]) is 6.47 nM; with HLA-A*02:06 (setting [1]), 5.19 nM; with HLA-A*68:02 (setting [1]), 0.26 nM.

Consider ILKNSQGEEV, for which the Kd with HLA-A*02:06 (source organism: Homo sapiens) was at least 72500 nM; in the assay with HLA-A*68:02 (source organism: Homo sapiens) it was 2250 nM.

In the case of YRKYHVPIM, the Kd with HLA-B*08:01 (setting [2]) came to 61.8 nM.

In the case of HISRQRLTKY, the Kd is 12.1 µM in the assay with HLA-A*01:01 (setting [3]); at least 70 µM with HLA-A*23:01 (setting [3]); at least 70.3 µM in the assay with HLA-A*24:02 (setting [3]); 1.16 µM in the assay with HLA-A*26:01 (setting [3]); 1020 nM with HLA-A*29:02 (setting [3]); 581 nM in the assay with HLA-A*30:02 (setting [3]).

Regarding GMEAQFLYLY, the Kd with HLA-A*01:01 (setting [3]) was 0.181 µM; in the assay with HLA-A*23:01 (setting [3]) it was at least 46.4 µM; in the assay with HLA-A*24:02 (setting [3]), at least 57.4 µM; with HLA-A*26:01 (setting [3]) it was 12.3 µM; with HLA-A*29:02 (setting [3]), 28.7 nM; in the assay with HLA-A*30:02 (setting [3]), 147 nM.

Take LYNSTFFSTF: the Kd with HLA-A*01:01 (setting [3]) turned out to be 10.3 µM; with HLA-A*23:01 (setting [3]) it was 0.000965 µM; with HLA-A*24:02 (setting [3]), 0.000635 µM; with HLA-A*26:01 (setting [3]) it was 0.834 µM; with HLA-A*29:02 (setting [3]), 622 nM; with HLA-A*30:02 (setting [3]), 1160 nM.

FALLKFTYL: the Kd in the assay with HLA-B*08:01 (setting [2]) was 1.59 nM.

For NLEKQIATL, in the assay with HLA-A*68:02 (source organism: Homo sapiens), the Kd was at least 26500 nM.

Turning to EAAAIFMTA, in the assay with HLA-A*68:02 (source organism: Dengue virus 1 Brazil/97-11/1997), the Kd turned out to be 0.301 nM.

Regarding GLSQFTQTV, the Kd in the assay with HLA-A*02:02 (setting [4]) was 3.92 nM; in the assay with HLA-A*02:03 (setting [4]), 0.699 nM; in the assay with HLA-A*02:06 (setting [4]) it was 721 nM; with HLA-A*68:02 (setting [4]) it was at least 26000 nM.

Take QWSLFFFVY: the Kd was 8.06 µM in the assay with HLA-A*01:01 (setting [3]); at least 77.8 µM in the assay with HLA-A*23:01 (setting [3]); at least 44.4 µM in the assay with HLA-A*24:02 (setting [3]); 17.6 µM with HLA-A*26:01 (setting [3]); 13.4 nM in the assay with HLA-A*29:02 (setting [3]); 1370 nM with HLA-A*30:02 (setting [3]).

As for FNKDIFVSL, the Kd with HLA-B*08:01 (setting [2]) stood at 277 nM.

With EGCPKPHRL, the Kd with HLA-A*01:01 (setting [5]) is 13.9 µM; with HLA-A*23:01 (setting [5]) it was at least 77.7 µM; with HLA-A*24:02 (setting [5]) it was at least 46.8 µM; with HLA-A*26:01 (setting [5]) it was at least 77.9 µM; in the assay with HLA-A*29:02 (setting [5]), at least 43700 nM; with HLA-A*30:02 (setting [5]) it was 12400 nM.

For the sequence YFPREGVFVF, the Kd with HLA-A*01:01 (setting [3]) is at least 70.4 µM; with HLA-A*23:01 (setting [3]), 0.00575 µM; with HLA-A*24:02 (setting [3]), 0.00735 µM; with HLA-A*26:01 (setting [3]) it was 17.2 µM; with HLA-A*29:02 (setting [3]), 7.23 nM; with HLA-A*30:02 (setting [3]) it was at least 78900 nM.

For YSAPFESEGV, the Kd with HLA-A*68:02 (source organism: Dengue virus 4 Philippines/H241/1956) was 2.52 nM.

Turning to LLSGAGEHL, the Kd with HLA-A*02:02 (source organism: Homo sapiens) is 5.73 nM; with HLA-A*02:03 (source organism: Homo sapiens), 19.2 nM; with HLA-A*68:02 (source organism: Homo sapiens), at least 47200 nM.

On to ETACLGKAYA, for which the Kd came out at 0.207 µM with HLA-A*26:01 (setting [1]) and 3.62 nM in the assay with HLA-A*68:02 (setting [1]).

As for MRGAKRMAI, the Kd with HLA-B*08:01 (setting [6]) is 2.44 nM.

As for MVNGVVRLL, the Kd with HLA-A*68:02 (setting [6]) amounted to 25.8 nM.

For RSTSLSVSLV, in the assay with HLA-A*68:02 (setting [6]), the Kd stood at 253 nM.

Turning to GYQPYRVVVL, the Kd with HLA-A*01:01 (setting [3]) was at least 70.4 µM; with HLA-A*23:01 (setting [3]) it was 0.0534 µM; with HLA-A*24:02 (setting [3]), 0.201 µM; in the assay with HLA-A*26:01 (setting [3]), at least 69.7 µM; with HLA-A*29:02 (setting [3]), 1230 nM; with HLA-A*30:02 (setting [3]), at least 78900 nM.

Take WTAGADTSEV: the dissociation constant Kd with HLA-A*68:02 (source organism: Dengue virus 4 Dominica/814669/1981) worked out at 29.1 nM.

On to DSFKEELDKY, for which the Kd with HLA-A*01:01 (setting [3]) was 0.754 µM; in the assay with HLA-A*23:01 (setting [3]) it was at least 70 µM; with HLA-A*24:02 (setting [3]) it was at least 70.3 µM; in the assay with HLA-A*26:01 (setting [3]), 0.416 µM; with HLA-A*29:02 (setting [3]), 399 nM; with HLA-A*30:02 (setting [3]), 299 nM.

In the case of RCWLIKNNSY, the Kd was at least 30.6 µM with HLA-A*01:01 (setting [4]); at least 70 µM with HLA-A*23:01 (setting [4]); at least 70.3 µM with HLA-A*24:02 (setting [4]); at least 69.7 µM with HLA-A*26:01 (setting [4]); at least 29100 nM with HLA-A*29:02 (setting [4]); 9.91 nM in the assay with HLA-A*30:02 (setting [4]).

Consider YCNYSKFWY, for which the Kd with HLA-A*01:01 (setting [7]) is at least 21.2 µM; with HLA-A*23:01 (setting [7]), 14.6 µM; with HLA-A*24:02 (setting [7]), at least 23.5 µM; in the assay with HLA-A*26:01 (setting [7]) it was at least 77.9 µM; with HLA-A*29:02 (setting [7]), 1030 nM; in the assay with HLA-A*30:02 (setting [7]) it was 1290 nM.
